Reference: article PMC6180065, “Deciphering molecular details in the assembly of alpha-type carboxysome” (Scientific Reports, 2018)

Biological target: T1, MBP tagged CbbL(1–136) (Halothiobacillus neapolitan (ATCC 23641), UniProt O85040 1-136)
T1 construct: Residues 1-136 (N domain) of RuBisCO large subunit CbbL of Halothiobacillus neapolitan (ATCC 23641); The coat of the ELISA; also called CbbL(N)
T1 sequence (looked up): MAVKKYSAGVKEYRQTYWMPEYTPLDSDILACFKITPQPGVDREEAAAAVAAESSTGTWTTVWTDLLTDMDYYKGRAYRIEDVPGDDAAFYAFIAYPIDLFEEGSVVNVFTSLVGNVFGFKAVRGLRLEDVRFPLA
Assay: ELISA; semi-quantitative; MaxiSorp plates coated with MBP-tagged CbbL(1–136) (30 nM in 0.1 M Na2CO3 pH 9.6, 4 °C, 12 h); CsoS1C-6xHis 5 nM to 5 μM in blocking buffer (1 mM CaCl2, 1% BSA in TBS), 1 h at room temperature; detected by 6xHis tag antibody and anti-mouse IgG-HRP; Hill equation fit; apparent Kd
Settings: both partners purified

- Kd: 120 ± 4.6 nM
B1: CsoS1C-6xHis (natural protein, Halothiobacillus neapolitan (ATCC 23641))
chain: MAAVTGIALGMIETRGLVPAIEAADAMTKAAEVRLVGRQFVGGGYVTVLVRGETGAVNAAVRAGADACERVGDGLVAAHIIARVHSEVENILPKAPEA
notes: Carboxysome shell protein CsoS1C of Halothiobacillus neapolitan (ATCC 23641); printed length 98 a.a; not measured in the assay
